# Measurements as given in PMC4496674, “Tackling Critical Catalytic Residues in Helicobacter pylori L-Asparaginase” (Biomolecules, 2015).
# B1: HpASNase (Helicobacter pylori 26695) (protein)
# chain: MAQNLPTIALLATGGTIAGSGASASLGSYKSGELGIKELLKAIPSLNRLARIQGEQISNIGSQDMNEEVWFKLAKRAQELLDDSRIQGVVITHGTDTLEESAYFLNLVLRSTKPVVLVGAMRNAASLSADGALNLYNAVSVALNEKSANKGVLVVMDDNIFSAREVIKTHTTHTSTFKALNSGAIGSVYYGKTRYYMQPLRKHTTESEFSLSQLKTPLPKVDIIYTHAGMTPDLFQASLNSHAKGVVIAGVGNGNVSAGFLKAMQEASQMGVVIVRSSRVNSGEITSGEIDDKAFITSDNLNPQKARVLLQLALTKTNNKEKIQEMFEEY
# Key:
# purified protein [1] = substrate: NC(=O)CC[C@H](N)C(=O)O; test: purified protein; settings: 50 mM HEPES pH 7.5, 37 °C, sigmoidal, cooperative
# purified protein [2] = substrate: NC(=O)C[C@H](N)C(=O)O; test: purified protein; settings: 50 mM HEPES pH 7.5, 37 °C, hyperbolic
protein,measurement,setting,value
B1,K0.5,purified protein [1],46.4 ± 4.02 mM
same,kcat,purified protein [1],22.1 ± 1.39 s⁻¹
same,kcat/Km,purified protein [1],470 ± 100 M⁻¹ s⁻¹
same,K0.5,purified protein [2],0.29 ± 0.03 mM
same,kcat,purified protein [2],19.3 ± 0.56 s⁻¹
same,kcat/Km,purified protein [2],66400 M⁻¹ s⁻¹
